{"source": "patent US11168316B2", "about": "“Chimeric clotting factors” (Bioverativ Therapeutics Inc., priority 2012, dated 2021)", "target": "T1, thrombin (Homo sapiens, UniProt P00734)", "T1 construct": "followed by 50 μL of thrombin (278 nM, 10 μg/mL)", "experiment": "Cleavage of peptides by 1.4 nM thrombin (HPLC)", "assay_type": "biochemical", "settings": "50 μM peptide, 37° C.", "experimental": "FIG. 19 depicts the cleavage of Compounds 1, 4, 5 and 6 by 1.4 nM thrombin. Compounds 1, 4 and 5 incorporate PABC and different thrombin-cleavable substrates. 50 μL of peptide (1 mM) in water was added to 900 μL PBS. The mixture was incubated at 37° C. for 30 min, followed by 50 μL of thrombin (27.8 nM, 1 μg/mL), giving the following approximate initial concentrations: thrombin=1.4 nM, peptide=50 μM. The mixture was incubated at 37° C. Aliquots (95 μL) at various time points were quenched with 5 μL of hirudin (2 μM) and injected into the HPLC (C-18 column, CH3CN/H2O, 0 to 70% over 12 minutes, 60° C. 0.5 mL/min, λ=280 nm). The decreases of peptide peak areas were used to calculate yield.", "note": "Ends that are not written are not given here.", "data": [{"substance": "Ala-Leu-Val-Pro-Arg-Ile-Val-Gly-Gly-Gln-Glu-NH2 (ALVPRIVGGQE-NH2; also: PABC self-immolative linker, place not given here) [Compound 6]", "values": [{"measurement": "thrombin-mediated release of peptide IVGGQE", "result": "not observed"}]}]}
